Measured values from patent publication US12723255B2, “Herbicide tolerance genes and methods of use thereof” (priority 2014, dated 2026).
Positions count from the first letter of the chain named.

Columns and labels:
[1] = system: transgenic soybean plants; experiment: R0 soybean green house 2,4-D spray test; format: in vivo; details: single copy R0 soy events
Text: Two engineered proteins were selected for analysis in transgenic soybean. DNA constructs were produced for expressing MON-HT1 (SEQ ID NO:14) and MON-HT2 (SEQ ID NO:18) with codon usage optimized for dicot expression using methods known to those skilled in the art. Enhancers, promoters, leaders, introns, CTPs, and 3′UTRs in various combinations were operably linked to the engineered proteins in these DNA constructs. The DNA constructs were used to transform soybean using Agrobacterium tumifaciens and standard methods known in the art. Regenerated R0 transgenic plantlets were grown in the green house. Approximately 9 weeks after transformation at the 1-2 trifoliate leaf stage, single copy R0 events were identified and sprayed with 2,4-D herbicide at a rate of 0.5× (0.375 lb ae/acre), 2× (1.5 lb ae/acre), or 4× (3.0 lb ae/acre). Approximately 2 weeks after herbicide application, the plants were rated for herbicide injury on a scale of 1 to 3, where 1=little to no injury (<20%), 2=moderate injury (20-50%) and 3=severe injury (>50%).

[2] = enzyme activity assay at 23° C. with purified enzyme; format: biochemical
Protocol: The enzyme activity of MON-HT protein variants with triclopyr, fluroxypyr, MCPA, MCPB, mecoprop, as substrates was determined using the enzyme activity assay conducted at 23° C. with purified enzyme. The activity was recorded as the maximum activity as a percentage of the wild-type RdpA enzyme's activity, which was set at 100%. […] The enzymatic activity with mecoprop as a substrate was reduced for each of the MON-HT1, MON-HT13, MON-HT15, and MON-HT17 variants compared to the wild-type RdpA enzyme. An unexpected result was that enzymatic activity with MCPA as a substrate was roughly 6-fold greater for MON-HT1, and approximately 10-fold greater for MON-HT13, MON-HT15, and MON-HT17 compared to the wild-type RdpA enzyme.

F1 hybrid maize plants = experiment: 2,4-D tolerance at elevated growth temperatures; format: in vivo; details: 4× 2,4-D amine; day/night 38° C./30° C.; ten days after treatment
Protocol: To test for 2,4-D tolerance at elevated growth temperatures, F1 hybrid plants were produced by crossing an R1 plant containing MON-HTI, MON-HT2, MON-HT3, MON-HT4, MON-HT7, or MON-HT55 with an inbred plant containing maize event MON89034. The F1 hybrid plants were grown in a greenhouse for one week at a minimum temperature of 20° C. and a maximum temperature of 28° C. with 50 to 80% humidity. After 1 week, the plants were moved to acclimate for three days at one of two different day and night temperature regimens: (1) both day and night temperatures set at 20° C. or (2) day temperature at 38° C. and night temperature at 30° C. At the end of the acclimation period, the plants were generally at V4 growth stage and were sprayed with 4× 2,4-D amine. Ten days after treatment the plants were scored for injury using an injury scale of 0 to 100 with “0” being no injury and “100” being a dead plant. When plants were acclimated at day/night temperatures of 20° C./20° C. prior to application of 4× 2,4-D amine, F1 plants containing MON-HT1, MON-HT2, MON-HT3, MON-HT4, MON-HT7, or MON-HT55 had injury rating averages of <10%, and the control plants had injury rating averages of <20% (FIG. 4D). […]

transgenic maize plants = experiment: R1 green house quizalofop-P spray test; format: in vivo; details: R1 maize with CTP; quizalofop-P 1× at V2; eleven days after treatment
Text: Plant transformation vectors were constructed each comprising a recombinant DNA molecule encoding one of three engineered proteins with the protein-coding sequence optimized for monocot expression, MON-HT51 (SEQ ID NO:3), MON-HT52 (SEQ ID NO:6), and MON-HT55 (SEQ ID NO:13). The vectors were created using different combinations of promoter, leader, intron, and 3′UTR and with and without a CTP operably linked to the protein-coding sequence. Also included in the vectors was a second DNA cassette comprising a cp4-EPSPS coding sequence to be used in transgenic plants for glyphosate tolerance. Immature maize (LH244) embryos were transformed with these vectors using Agrobacterium tumifaciens and standard methods known in the art. Regenerated R0 transgenic plantlets were grown in the green house and sprayed at approximately V2-V4 growth stage with 0.04 or 0.08 lb ai/acre quizalofop-P (AssureTM II, E.I. DuPont), representing 0.5× and 1× rates, respectively. Leaf samples were used to identify transgenic plants with a single copy of the transgenic DNA insert (that is, single event plants). […]
R1 plants expressing MON-HT55 with and without an operably linked CTP were grown in the green house and quizalofop-P herbicide was applied at the V2 growth stage at a rate of 0.08Ib ac/acre (1×). Plants were evaluated for injury eleven days after treatment.

[3] = CTP No, 2,4-D rate 0.5X, about 2 weeks after application
[4] = percentage of wild-type RdpA, set at 100%

B1: MON-HT1: engineered oxygenase protein, amino acid sequence SEQ ID NO:14 (protein)
chain: MHAALTPLTNKYRFIDVQPLTGVLGAEITGVDLREPLDDSTWNEILDAFHTYQVIYFPGQAITNEQHIAFSRRFGPVDPVPILKSIEGYPEVQMIRREANESSRFIGDDWHTDSTFLDAPPAAVVMRAIEVPEYGGDTGFLSMYSAWETLSPTMQATIEGLNVVHSATKVFGSLYQATNWRFSNTSVKVMDVDAGDRETVHPLVVTHPVTGRRALYCNQVYCQKIQGMTDAESKSLLQFLYEHATKFDFTCRVRWKKDQVLVWDNLCTMHRAVPDYAGKFRYLTRTTVAGDKPSR
With B1 the “Events with 20-50% injury” value ([1]; CTP No, 2,4-D rate 0.5X) was 10, the “Events with injury >50%” value ([1]; CTP No, 2,4-D rate 0.5X) was 0 and the “Events with <20% injury” value [1, 3] was 120. The “Events with 20-50% injury” value ([1]; CTP No, 2,4-D rate 2X) was 30, the “Events with <20% injury” value ([1]; CTP No, 2,4-D rate 2X) was 6 and the “Events with injury >50%” value ([1]; CTP No, 2,4-D rate 2X) was 0. For the same molecule, the “Events with 20-50% injury” value ([1]; CTP Yes, 2,4-D rate 2X) was 35, the “Events with <20% injury” value ([1]; CTP Yes, 2,4-D rate 2X) was 101 and the “Events with injury >50%” value ([1]; CTP Yes, 2,4-D rate 2X) was 0. The “Events with 20-50% injury” value ([1]; CTP Yes, 2,4-D rate 4X) was 6, the “Events with <20% injury” value ([1]; CTP Yes, 2,4-D rate 4X) was 5 and the “Events with injury >50%” value ([1]; CTP Yes, 2,4-D rate 4X) was 0. For the same molecule, the “activity with MCPB as the substrate” value [2] was “no detectable activity”, the “enzymatic activity with MCPA greater compared to the wild-type RdpA enzyme” value [2] was “roughly 6 fold” and the “activity with fluroxypyr as the substrate” value ([2]; not robust enough to quantify) was “detectable activity”. The “activity with triclopyr as the substrate” value ([2]; not robust enough to quantify) was “detectable activity”, the “MCPA Km” value [2, 4] was 21% and the “MCPA Vmax” value [2, 4] was 600%. The “Mecoprop Km” value [2, 4] was 142%.

B2: MON-HT2: engineered oxygenase protein, amino acid sequence SEQ ID NO:18 (protein)
chain: B1 chain with I82L, F105V, T112S, V273A
With B2 the “Events with 20-50% injury” value ([1]; CTP No, 2,4-D rate 0.5X) was 19, the “Events with injury >50%” value ([1]; CTP No, 2,4-D rate 0.5X) was 0 and the “Events with <20% injury” value [1, 3] was 3.

B3: MON-HT55: engineered oxygenase protein, amino acid sequence SEQ ID NO:11 (protein)
chain: MHAALSPLSQRFERIAVQPLTGVLGAEITGVDLREPLDDSTWNEILDAFHTYQVIYFPGQAITNEQHIAFSRRFGPVDPVPLLKSIEGYPEVQMIRREANESGRVIGENWHTDSTFLDAPPAAVVMYAKEIPPYGGDTLFTSMYTAWETLSPTMQATIEGLNVVHSATRVFGSLYQAQNRRFSNTSVKVMDVDAGDRETVHPLVVTHPETGRKGLYVNQVYCQRIEGMSEKESEPLLSFLFAHATKPEFTCRVRWQEGDVLVWDNLCTQHYAVPDYAGKFRYLTRTTVGGVRPAR
B3 gave an injury rating averages (F1 hybrid maize plants) of 50% and an injury scores (transgenic maize plants) of no more than 5%.
